Target: T1, FcγRIIb extracellular domain with C-terminal His tag (human, UniProt P31994 43-217)
T1 construct: extracellular domain; expressed in FreeStyle293 cells; analyte in the Biacore assay; also called FcgRIIb; 2b; not shown: His tag at the C terminus
T1 sequence (looked up): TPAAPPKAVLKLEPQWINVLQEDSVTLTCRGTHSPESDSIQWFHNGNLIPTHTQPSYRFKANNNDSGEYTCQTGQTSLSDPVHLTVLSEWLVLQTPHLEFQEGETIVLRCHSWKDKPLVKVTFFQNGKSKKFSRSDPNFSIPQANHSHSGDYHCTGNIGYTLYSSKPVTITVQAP
Assay: SPR (Biacore), captured antibody, FcγRIIb analyte; binding relative to GpH7-A5/GpH7-B3/GpL16-k0 = 100

Binder	He/Con_2b
GpH7-A5/GpH7-B3 variant K326_06M/GpL16-k0 (antibody, human IgG1, kappa, heterodimerized; mutation in the B3 H chain only; also called He Ab K326_06M) heavy 1: not shown heavy 2: not shown light: DIVMTQSPLSLPVTPGEPASISCQASESLVHSNRNTYLHWYLQKPGQSPQLLIYKVSNRFSGVPDRFSGSGSGTDFTLKISRVEAEDVGVYYCSQNTHVPPTFGQGTKVEIERTVAAPSVFIFPPSDEQLKSGTASVVCLLNNFYPREAKVQWKVDNALQSGNSQESVTEQDSKDSTYSLSSTLTLSKADYEKHKVYACEVTHQGLSSPVTKSFNRGEC	165 % of control
GpH7-A5/GpH7-B3 variant K326_10E/GpL16-k0 (antibody, human IgG1, kappa, heterodimerized; mutation in the B3 H chain only; also called He Ab K326_10E) heavy 1: not shown heavy 2: not shown light: DIVMTQSPLSLPVTPGEPASISCQASESLVHSNRNTYLHWYLQKPGQSPQLLIYKVSNRFSGVPDRFSGSGSGTDFTLKISRVEAEDVGVYYCSQNTHVPPTFGQGTKVEIERTVAAPSVFIFPPSDEQLKSGTASVVCLLNNFYPREAKVQWKVDNALQSGNSQESVTEQDSKDSTYSLSSTLTLSKADYEKHKVYACEVTHQGLSSPVTKSFNRGEC	200 % of control
GpH7-A5/GpH7-B3 variant I332_15Y/GpL16-k0 (antibody, human IgG1, kappa, heterodimerized; mutation in the B3 H chain only; also called He Ab I332_15Y) heavy 1: not shown heavy 2: not shown light: DIVMTQSPLSLPVTPGEPASISCQASESLVHSNRNTYLHWYLQKPGQSPQLLIYKVSNRFSGVPDRFSGSGSGTDFTLKISRVEAEDVGVYYCSQNTHVPPTFGQGTKVEIERTVAAPSVFIFPPSDEQLKSGTASVVCLLNNFYPREAKVQWKVDNALQSGNSQESVTEQDSKDSTYSLSSTLTLSKADYEKHKVYACEVTHQGLSSPVTKSFNRGEC	101 % of control
GpH7-A5/GpH7-B3 variant K326_16H/GpL16-k0 (antibody, human IgG1, kappa, heterodimerized; mutation in the B3 H chain only; also called He Ab K326_16H) heavy 1: not shown heavy 2: not shown light: DIVMTQSPLSLPVTPGEPASISCQASESLVHSNRNTYLHWYLQKPGQSPQLLIYKVSNRFSGVPDRFSGSGSGTDFTLKISRVEAEDVGVYYCSQNTHVPPTFGQGTKVEIERTVAAPSVFIFPPSDEQLKSGTASVVCLLNNFYPREAKVQWKVDNALQSGNSQESVTEQDSKDSTYSLSSTLTLSKADYEKHKVYACEVTHQGLSSPVTKSFNRGEC	119 % of control
GpH7-A5/GpH7-B3 variant K326_04F/GpL16-k0 (antibody, human IgG1, kappa, heterodimerized; mutation in the B3 H chain only; also called He Ab K326_04F) heavy 1: not shown heavy 2: not shown light: DIVMTQSPLSLPVTPGEPASISCQASESLVHSNRNTYLHWYLQKPGQSPQLLIYKVSNRFSGVPDRFSGSGSGTDFTLKISRVEAEDVGVYYCSQNTHVPPTFGQGTKVEIERTVAAPSVFIFPPSDEQLKSGTASVVCLLNNFYPREAKVQWKVDNALQSGNSQESVTEQDSKDSTYSLSSTLTLSKADYEKHKVYACEVTHQGLSSPVTKSFNRGEC	155 % of control
GpH7-A5/GpH7-B3 variant I332_14T/GpL16-k0 (antibody, human IgG1, kappa, heterodimerized; mutation in the B3 H chain only; label printed T332_14T, read as I332_14T; also called He Ab I332_14T) heavy 1: not shown heavy 2: not shown light: DIVMTQSPLSLPVTPGEPASISCQASESLVHSNRNTYLHWYLQKPGQSPQLLIYKVSNRFSGVPDRFSGSGSGTDFTLKISRVEAEDVGVYYCSQNTHVPPTFGQGTKVEIERTVAAPSVFIFPPSDEQLKSGTASVVCLLNNFYPREAKVQWKVDNALQSGNSQESVTEQDSKDSTYSLSSTLTLSKADYEKHKVYACEVTHQGLSSPVTKSFNRGEC	106 % of control
GpH7-A5/GpH7-B3 variant I336_08L/GpL16-k0 (antibody, human IgG1, kappa, heterodimerized; mutation in the B3 H chain only; also called He Ab I336_08L) heavy 1: not shown heavy 2: not shown light: DIVMTQSPLSLPVTPGEPASISCQASESLVHSNRNTYLHWYLQKPGQSPQLLIYKVSNRFSGVPDRFSGSGSGTDFTLKISRVEAEDVGVYYCSQNTHVPPTFGQGTKVEIERTVAAPSVFIFPPSDEQLKSGTASVVCLLNNFYPREAKVQWKVDNALQSGNSQESVTEQDSKDSTYSLSSTLTLSKADYEKHKVYACEVTHQGLSSPVTKSFNRGEC	107 % of control
GpH7-A5/GpH7-B3 variant K334_03V/GpL16-k0 (antibody, human IgG1, kappa, heterodimerized; mutation in the B3 H chain only; also called He Ab K334_03V) heavy 1: not shown heavy 2: not shown light: DIVMTQSPLSLPVTPGEPASISCQASESLVHSNRNTYLHWYLQKPGQSPQLLIYKVSNRFSGVPDRFSGSGSGTDFTLKISRVEAEDVGVYYCSQNTHVPPTFGQGTKVEIERTVAAPSVFIFPPSDEQLKSGTASVVCLLNNFYPREAKVQWKVDNALQSGNSQESVTEQDSKDSTYSLSSTLTLSKADYEKHKVYACEVTHQGLSSPVTKSFNRGEC	125 % of control
GpH7-A5/GpH7-B3 variant K334_04F/GpL16-k0 (antibody, human IgG1, kappa, heterodimerized; mutation in the B3 H chain only; also called He Ab K334_04F) heavy 1: not shown heavy 2: not shown light: DIVMTQSPLSLPVTPGEPASISCQASESLVHSNRNTYLHWYLQKPGQSPQLLIYKVSNRFSGVPDRFSGSGSGTDFTLKISRVEAEDVGVYYCSQNTHVPPTFGQGTKVEIERTVAAPSVFIFPPSDEQLKSGTASVVCLLNNFYPREAKVQWKVDNALQSGNSQESVTEQDSKDSTYSLSSTLTLSKADYEKHKVYACEVTHQGLSSPVTKSFNRGEC	111 % of control
GpH7-A5/GpH7-B3 variant K334_05P/GpL16-k0 (antibody, human IgG1, kappa, heterodimerized; mutation in the B3 H chain only; also called He Ab K334_05P) heavy 1: not shown heavy 2: not shown light: DIVMTQSPLSLPVTPGEPASISCQASESLVHSNRNTYLHWYLQKPGQSPQLLIYKVSNRFSGVPDRFSGSGSGTDFTLKISRVEAEDVGVYYCSQNTHVPPTFGQGTKVEIERTVAAPSVFIFPPSDEQLKSGTASVVCLLNNFYPREAKVQWKVDNALQSGNSQESVTEQDSKDSTYSLSSTLTLSKADYEKHKVYACEVTHQGLSSPVTKSFNRGEC	105 % of control
GpH7-A5/GpH7-B3 variant K326_09D/GpL16-k0 (antibody, human IgG1, kappa, heterodimerized; mutation in the B3 H chain only; also called He Ab K326_09D) heavy 1: not shown heavy 2: not shown light: DIVMTQSPLSLPVTPGEPASISCQASESLVHSNRNTYLHWYLQKPGQSPQLLIYKVSNRFSGVPDRFSGSGSGTDFTLKISRVEAEDVGVYYCSQNTHVPPTFGQGTKVEIERTVAAPSVFIFPPSDEQLKSGTASVVCLLNNFYPREAKVQWKVDNALQSGNSQESVTEQDSKDSTYSLSSTLTLSKADYEKHKVYACEVTHQGLSSPVTKSFNRGEC	193 % of control

Source: patent publication US20180155451A1 (published 2018)
